Article PMC10693918

Molecular target: TniQ transposition protein of the type I-F3b CAST element Tn6900, His6-tagged
Test: cryo-EM structure

TniQ transposition protein of the type I-F3b CAST element Tn6900, His6-tagged (natural protein)
stoichiometry N: 2
